Assay results as given in US10603364B2, “Lysosomal targeting and uses thereof” (Shire Human Genetic Therapies, Inc., priority 2014, dated 2020).

B1: Naglu-tPRGN: Fusion protein of human Naglu and Progranulin C-terminal peptide (tPRGN) via GAG3 linker; SEQ ID NO:18, SEQ ID NO:23 (protein)
chain: MEAVAVAAAVGVLLLAGAGGAAGDEAREAAAVRALVARLLGPGPAADFSVSVERALAAKPGLDTYSLGGGGAARVRVRGSTGVAAAAGLHRYLRDFCGCHVAWSGSQLRLPRPLPAVPGELTEATPNRYRYYQNVCTQSYSFVWWDWARWEREIDWMALNGINLALAWSGQEAIWQRVYLALGLTQAEINEFFTGPAFLAWGRMGNLHTWDGPLPPSWHIKQLYLQHRVLDQMRSFGMTPVLPAFAGHVPEAVTRVFPQVNVTKMGSWGHFNCSYSCSFLLAPEDPIFPIIGSLFLRELIKEFGTDHIYGADTFNEMQPPSSEPSYLAAATTAVYEAMTAVDTEAVWLLQGWLFQHQPQFWGPAQIRAVLGAVPRGRLLVLDLFAESQPVYTRTASFQGQPFIWCMLHNFGGNHGLFGALEAVNGGPEAARLFPNSTMVGTGMAPEGISQNEVVYSLMAELGWRKDPVPDLAAWVTSFAARRYGVSHPDAGAAWRLLLRSVYNCSGEACRGHNRSPLVRRPSLQMNTSIWYNRSDVFEAWRLLLTSAPSLATSPAFRYDLLDLTRQAVQELVSLYYEEARSAYLSKELASLLRAGGVLAYELLPALDEVLASDSRFLLGSWLEQARAAAVSEAEADFYEQNSRYQLTLWGPEGNILDYANKQLAGLVANYYTPRWRLFLEALVDSVAQGIPFQQHQFDKNVFQLEQAFVLSKQRYPSQPRGDTVDLAKKIFLKYYPRWVAGSWGAPGGGGGAAAAAGGGGGGAPGGGGGAAAAAGGGGGGAPGGGGGAAAAAGGGGGGAPTKCLRREAPRWDAPLRDPALRQLL
B2: Naglu-IGFII: Fusion protein of human Naglu and IGF-II residues 8-67 via GAG3 linker; SEQ ID NO:20, SEQ ID NO:25; positive control (protein)
chain: MEAVAVAAAVGVLLLAGAGGAAGDEAREAAAVRALVARLLGPGPAADFSVSVERALAAKPGLDTYSLGGGGAARVRVRGSTGVAAAAGLHRYLRDFCGCHVAWSGSQLRLPRPLPAVPGELTEATPNRYRYYQNVCTQSYSFVWWDWARWEREIDWMALNGINLALAWSGQEAIWQRVYLALGLTQAEINEFFTGPAFLAWGRMGNLHTWDGPLPPSWHIKQLYLQHRVLDQMRSFGMTPVLPAFAGHVPEAVTRVFPQVNVTKMGSWGHFNCSYSCSFLLAPEDPIFPIIGSLFLRELIKEFGTDHIYGADTFNEMQPPSSEPSYLAAATTAVYEAMTAVDTEAVWLLQGWLFQHQPQFWGPAQIRAVLGAVPRGRLLVLDLFAESQPVYTRTASFQGQPFIWCMLHNFGGNHGLFGALEAVNGGPEAARLFPNSTMVGTGMAPEGISQNEVVYSLMAELGWRKDPVPDLAAWVTSFAARRYGVSHPDAGAAWRLLLRSVYNCSGEACRGHNRSPLVRRPSLQMNTSIWYNRSDVFEAWRLLLTSAPSLATSPAFRYDLLDLTRQAVQELVSLYYEEARSAYLSKELASLLRAGGVLAYELLPALDEVLASDSRFLLGSWLEQARAAAVSEAEADFYEQNSRYQLTLWGPEGNILDYANKQLAGLVANYYTPRWRLFLEALVDSVAQGIPFQQHQFDKNVFQLEQAFVLSKQRYPSQPRGDTVDLAKKIFLKYYPRWVAGSWGAPGGGGGAAAAAGGGGGGAPGGGGGAAAAAGGGGGGAPGGGGGAAAAAGGGGGGAPLCGGELVDTLQFVCGDRGFYFSRPASRVSRRSRGIVEECCFRSCDLALLETYCATPAKSE
notes: Fusion protein of human Naglu and IGF-II residues 8-67 via GAG3 linker; positive control
B3: Naglu-SapDC: Fusion protein of human Naglu and Prosaposin DC peptide (SapDC) via GAG3 linker; SEQ ID NO:19, SEQ ID NO:24 (protein)
chain: MEAVAVAAAVGVLLLAGAGGAAGDEAREAAAVRALVARLLGPGPAADFSVSVERALAAKPGLDTYSLGGGGAARVRVRGSTGVAAAAGLHRYLRDFCGCHVAWSGSQLRLPRPLPAVPGELTEATPNRYRYYQNVCTQSYSFVWWDWARWEREIDWMALNGINLALAWSGQEAIWQRVYLALGLTQAEINEFFTGPAFLAWGRMGNLHTWDGPLPPSWHIKQLYLQHRVLDQMRSFGMTPVLPAFAGHVPEAVTRVFPQVNVTKMGSWGHFNCSYSCSFLLAPEDPIFPIIGSLFLRELIKEFGTDHIYGADTFNEMQPPSSEPSYLAAATTAVYEAMTAVDTEAVWLLQGWLFQHQPQFWGPAQIRAVLGAVPRGRLLVLDLFAESQPVYTRTASFQGQPFIWCMLHNFGGNHGLFGALEAVNGGPEAARLFPNSTMVGTGMAPEGISQNEVVYSLMAELGWRKDPVPDLAAWVTSFAARRYGVSHPDAGAAWRLLLRSVYNCSGEACRGHNRSPLVRRPSLQMNTSIWYNRSDVFEAWRLLLTSAPSLATSPAFRYDLLDLTRQAVQELVSLYYEEARSAYLSKELASLLRAGGVLAYELLPALDEVLASDSRFLLGSWLEQARAAAVSEAEADFYEQNSRYQLTLWGPEGNILDYANKQLAGLVANYYTPRWRLFLEALVDSVAQGIPFQQHQFDKNVFQLEQAFVLSKQRYPSQPRGDTVDLAKKIFLKYYPRWVAGSWGAPGGGGGAAAAAGGGGGGAPGGGGGAAAAAGGGGGGAPGGGGGAAAAAGGGGGGAPDGGFCEVCKKLVGYLDRNLEKNSTKQEILAALEKGCSFLPDPYQKQCDQFVAEYEPVLIEILVEVMDPSFVCLKIGACPSAHKPLLGTEKCIWGPSYWCQNTETAAQCNAVEHCKRHVWN

Legend:
[1] = test system: SORT1 overexpressing cells; experiment: Cellular uptake in Sortilin overexpressing cells (intracellular Naglu enzyme activity); format: cell-based; conditions: absence of Neurotensin
Method: A cell line was established overexpressing SORT1, using standard technologies known in the art. […] After a specified period of time, the supernatant was removed and the cells were washed repeatedly. Then, cells were lysed and each sample was assayed for Naglu enzyme activity.

wild-type rats [2] = experiment: Immunohistochemistry of Naglu protein in brain tissue after intrathecal administration; format: in vivo; conditions: for Naglu immunostaining in cerebral cortex / brain parenchyma: 4 and 24 hours post treatment
Method: (§1) To evaluate biodistribution of the SORT1-binding Naglu fusion proteins, an in vivo study was conducted using wild-type rats subjected to intrathecal administration of vehicle control (PBS), rhNaglu, Naglu-IGFII, Naglu-SPP, Naglu-SapDC or Naglu-tPRGN. Details of the experimental design are provide in Table 9 below. Previous experiments had shown that Naglu-IGFII but not rhNaglu penetrates into brain tissue and is targeted to lysosomes after intrathecal injection. Accordingly, rhNaglu and Naglu-IGFII were utilized in this study as negative and positive controls, respectively.
Rats were sacrificed either 4 or 24 hours post intrathecal administration of the respective fusion protein. Brain tissue samples were collected, fixed in 10% NBF and processed for paraffin embedding. 5 μm paraffin sections from each tissue assayed were subjected to immunostaining using an anti-human Naglu antibody.

wild-type rats [3] = experiment: Naglu enzyme activity in liver and brain after intrathecal administration (biodistribution); format: in vivo; conditions: 385 ug/animal; for Naglu enzyme activity in brain: 4 or 24 hours post dose
Method: as §1
Rats were sacrificed either 4 or 24 hours post intrathecal administration of the respective fusion protein and total Naglu enzyme activity in the animals' liver and brain tissue was determined using a well-established enzyme activity assay (FIGS. 7A and B). Briefly, brain and liver tissue homogenates were prepared and incubated in the presence of a Naglu specific substrate, i.e., methylumbelliferyl-N-acetyl-α-D-glucosainide; accumulation of cleavage product was then measured by examining fluorescence intensity at 360/460 nm (excitation/emission) using a fluorescent plate reader.

Naglu KO mice [4] = experiment: Total glycosaminoglycan (GAG) in liver and brain, dimethylmethylene blue; format: in vivo; conditions: intrathecal, 520 mg/kg brain; brain significant in 2× and 3× weekly groups
Method: (§2) To evaluate the in vivo activity of Naglu-SPP and its efficacy as a therapeutic for the treatment of lysosomal storage diseases, particularly San B, Naglu-SPP was administered to Naglu KO mice via intrathecal injection. Intrathecal administration of Naglu-IGFII served as a positive control. The experimental conditions used for this assay are described in Tables 10 and 11 below.
The activity of Naglu-SPP and Naglu-IGFII in vivo was also evaluated by examining the intracellular accumulation of natural substrates of Naglu in treated mice. One such assay was designed to evaluate the total concentration of glycosaminoglycan (GAG) in liver (FIG. 11A) and brain (FIG. 11B) tissue of treated mice in accordance with de Jong et al. (Clin Chem 38(6):803-807, 1992). Briefly, liver tissue was homogenized and total GAG quantified using dimethylmethylene blue. Brain tissue was homogenized and then incubated with pronase and benzonase to break down protein and nucleic acid. Total GAG was then extracted by passing the brain homogenate through a DEAE column. The eluate was further buffer exchanged through a desalting column, and the total GAG content was quantified using dimethylmethylene blue. […] The reduction of total GAG amount in brain tissue was significant in the 2× weekly as well as the 3× weekly treatment groups.

Naglu KO mice [5] = experiment: Sanfillipo B specific biomarkers in brain by LC/MS; format: in vivo; conditions: intrathecal, 520 mg/kg brain, especially 2× weekly and 3× weekly
Method: as §2
Using the same LC/MS technology as used for the quantification of heparin sulfate (see above), the presence of Sanfillipo B specific biomarkers in brains of treated KO mice were evaluated. Naglu deficiency causes the accumulation of certain heparin sulfate degradation products (presented in FIGS. 13A-C) which are natural substrates of Naglu. These biomarkers are the most relevant indications for Naglu deficiency.

Naglu KO mice [6] = experiment: Heparan sulfate in brain by LC/MS; format: in vivo; conditions: intrathecal, 520 mg/kg brain, 2× weekly and 3× weekly
Method: as §2
In a second assay, we evaluation the total amount of heparan sulfate in the brain of treated KO mice. […] To measure heparan sulfate in mouse brain tissue, a highly sensitive LC/MS method was applied (Lawrence et al, 2012, Nat Chem Biol. 2012 Jan. 8; 8(2):197-204). Briefly, total GAG from brain tissue was extracted by a DEAE column and a desalting column, and then dried and weighted. The extracted GAG was treated with heparin lyases that specifically release unique mono, di and tri saccharides of heparan sulfate, and the sample was then analyzed by LC/MS. The released saccharides were identified and quantified using commercially available saccharide standards of heparan sulfate degradation.

Naglu KO mice [7] = experiment: Naglu enzyme activity in tissues of Naglu KO mice after intrathecal administration; format: in vivo; conditions: 520 mg/kg brain, 24 hrs post final dose
Method: as §2
24 hours after intrathecal administration of each respective fusion protein, Naglu KO mice were sacrificed and Naglu enzyme activity in various tissues was assayed. Total Naglu activity was evaluated using a well-established enzyme activity assay. Briefly, tissue homogenate was incubated in the presence of the Naglu specific substrate methylumbelliferyl-N-acetyl-α-D-glucosainide, and accumulation of cleavage product was measured by examining fluorescence intensity at 360/460 nm (excitation/emission) using a fluorescent plate reader. […] This increase in enzyme activity was observed over the duration of the 3 week treatment period.

Naglu KO mice [8] = experiment: Immunohistochemical staining of Lamp-1, GFAP and Iba-1 in brain and liver; format: in vivo; conditions: intrathecal
Method: as §2
The lysosomal targeting of Naglu-SPP and Naglu-IGFII was further examined by immunohistochemical analysis. Tissue samples were collected, fixed in 10% NBF and processed for paraffin embedding. For each tissue assayed, 5 μm paraffin sections was subjected to immunostaining using antibodies against lamp lysosomal associated membrane protein 1 (Lamp-1), glial fibrillary acidic protein (GFAP) and the ionized calcium-binding adapter molecule 1 (Iba-1).

| Molecule | Bmax of binding/uptake [1] | cellular internalization (intracellular Naglu activity) [1] | Naglu immunostaining in cerebral cortex / brain parenchyma (wild-type rats [2]) | Naglu enzyme activity in brain (wild-type rats [3]) | total GAG concentration in liver and brain tissue vs vehicle control (Naglu KO mice [4]) | accumulation of three GAG cleavage products (San B biomarkers) in brain (Naglu KO mice [5]) | Naglu immunostaining in cerebellum and hippocampal region (wild-type rats [2]; 24 hours post injection) | total amount of heparan sulfate accumulation in brain tissue (Naglu KO mice [6]) | Naglu activity in liver and brain tissue vs vehicle control (Naglu KO mice [7]) | Lamp-1 immunostaining in brain (cerebral cortex, cerebellum, thalamus, striatum, white matter) (Naglu KO mice [8]; 2× weekly and 3× weekly) | Lamp-1 immunoreactivity in liver (Naglu KO mice [8]; three weekly deliveries) | GFAP staining in cerebral cortex and cerebellum (astrocytes) (Naglu KO mice [8]; three weekly injections) | Iba-1 staining in cerebral cortex and cerebellum (microglial cells) (Naglu KO mice [8]; three weekly injections) | rank of Naglu enzyme activity in brain among treatments (wild-type rats [3]) |
| --- | --- | --- | --- | --- | --- | --- | --- | --- | --- | --- | --- | --- | --- | --- |
| B1 | 2060 nmol/h/mg | effectively internalized | little to no Naglu signal | markedly elevated levels |  |  |  |  |  |  |  |  |  |  |
| B2 |  |  | positive staining | markedly elevated levels | significant reduction | dramatic decrease | strong Naglu signal | strong reduction | dramatic increase | decrease | reduced significantly | reduced signal | microglial cells had a reduced size and a reduced number of processes | highest activity |
| B3 |  | only a very limited increase | little to no Naglu signal | markedly elevated levels |  |  |  |  |  |  |  |  |  |  |
